Experimental data published in US20160031958.

What was measured:
[1] = biological target: T1, FLAG-REST (unmutated, full-length), Q13127
T1 chain: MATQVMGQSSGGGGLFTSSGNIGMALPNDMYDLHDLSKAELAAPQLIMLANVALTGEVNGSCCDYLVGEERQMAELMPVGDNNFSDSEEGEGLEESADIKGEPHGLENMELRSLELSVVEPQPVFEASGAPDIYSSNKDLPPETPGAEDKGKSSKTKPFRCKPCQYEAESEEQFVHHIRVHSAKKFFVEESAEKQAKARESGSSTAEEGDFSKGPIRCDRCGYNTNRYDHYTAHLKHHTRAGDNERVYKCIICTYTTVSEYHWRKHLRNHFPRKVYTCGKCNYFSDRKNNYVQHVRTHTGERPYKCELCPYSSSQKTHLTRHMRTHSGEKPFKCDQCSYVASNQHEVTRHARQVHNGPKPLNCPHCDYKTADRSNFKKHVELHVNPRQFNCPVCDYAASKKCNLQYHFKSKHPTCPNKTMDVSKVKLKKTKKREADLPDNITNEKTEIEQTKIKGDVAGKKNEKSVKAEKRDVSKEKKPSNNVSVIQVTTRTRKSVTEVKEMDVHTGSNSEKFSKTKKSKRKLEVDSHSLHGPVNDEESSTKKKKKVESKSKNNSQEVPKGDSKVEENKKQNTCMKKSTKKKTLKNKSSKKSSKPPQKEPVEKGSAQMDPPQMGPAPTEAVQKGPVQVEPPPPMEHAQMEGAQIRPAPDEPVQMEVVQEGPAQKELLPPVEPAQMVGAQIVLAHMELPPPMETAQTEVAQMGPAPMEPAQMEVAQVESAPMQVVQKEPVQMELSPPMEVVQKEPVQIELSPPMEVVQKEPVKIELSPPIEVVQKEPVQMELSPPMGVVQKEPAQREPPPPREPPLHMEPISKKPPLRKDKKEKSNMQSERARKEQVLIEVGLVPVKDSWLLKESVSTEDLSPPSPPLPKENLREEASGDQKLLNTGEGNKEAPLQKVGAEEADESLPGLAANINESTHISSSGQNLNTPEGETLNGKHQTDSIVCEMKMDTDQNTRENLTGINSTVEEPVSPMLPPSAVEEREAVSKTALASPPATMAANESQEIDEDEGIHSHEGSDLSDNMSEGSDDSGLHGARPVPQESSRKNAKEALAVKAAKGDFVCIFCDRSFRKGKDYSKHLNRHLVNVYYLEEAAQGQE

[2] = biological target: T2, FLAG-REST (810-910)-GFP reporter peptide, unmutated
T2 chain: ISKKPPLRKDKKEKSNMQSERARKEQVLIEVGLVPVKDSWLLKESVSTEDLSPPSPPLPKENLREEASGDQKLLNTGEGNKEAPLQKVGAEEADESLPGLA

B1: FLAG-CTDSP1 (protein)
chain: MDSSAVITQISKEEARGPLRGKGDQKSAASQKPRSRGILHSLFCCVCRDDGEALPAHSGAPLLVEENGAIPKQTPVQYLLPEAKAQDSDKICVVIDLDETLVHSSFKPVNNADFIIPVEIDGVVHQVYVLKRPHVDEFLQRMGELFECVLFTASLAKYADPVADLLDKWGAFRARLFRESCVFHRGNYVKDLSRLGRDLRRVLILDNSPASYVFHPDNAVPVASWFDNMSDTELHDLLPFFEQLSRVDDVYSVLRQPRPGS
With B1 the “Western blot with REST phospho-specific polyclonal antibody” value [1] was “exogenously expressed FLAG-CTDSP1 dephosphorylated these sites in full-length REST” and the “in-gel GFP fluorescence on native gel (mobility shift)” value [2] was “Dephosphorylation by CTDSP1 was also observed in the REST reporter peptides”.
